Data taken from patent publication US7252951B2, “Essential downstream component of the wingless signaling pathway and therapeutic and diagnostic applications based thereon” (Universität Zurich, priority 2000, dated 2007).

System: Arm-Tcf transcriptional activity
Test: Tcf-reporter gene (TOPFLASH luciferase) assay in HEK293 cells
Type: cell-based
Conditions: 4 ng pcDNA3-ΔArm, 200 ng pcDNA3-EGFP-hLgs-peptide, 48 h after transfection, normalized for renilla luciferase
Description: FIG. 15(A) Effect of the expression of Lgs sequence homology 2-peptides on Tcf transcriptional activity. HEK293 cells at 50% confluence were plated into 24-well plates and transfected by a lipofection method. 240 ng of TOPFLASH luciferase reporter plasmid (Upstate biotechnology, New York, USA), 4 ng of pcDNA3-ΔArm, 200 ng of pcDNA3-EGFP-Lgs-peptide and 10 ng of a renilla luciferase reporter plasmid pRL-SV40 (Promega Corporation, Madison USA) were diluted into 25 μl of OPTI-MEM Medium (Life Technologies, Inc.) and combined with 1.2 μl of Lipofectamine (Life Technologies, Inc.) in 25 μl OPTI-MEM. After incubation for 20 min, 0.175 ml of OPTI-MEM was added and the mixtures were overlaid onto monolayers of cells. After culturing at 37° C./5% CO2 for 6 hr, 0.225 ml of OPTI-MEM containing 20% FCS was added to the cultures. […]
The effect of Lgs on Tcf transactivation activity can be performed in a cell culture system using a Tcf reporter gene. A Tcf-responsive reporter gene is a contruct which comprises a readily detectable or assayable gene such β-galactosidase, green fluorescent protein, chloramphenicol acetyltransferase or luciferase, linked in cis to a Tcf response element and a minimal promoter. […]

B1: hLgs/Bcl9(279–392): Fragment (amino acids 279–392) of human Lgs/Bcl9 with a sequence homology domain, expressed as EGFP fusion from pcDNA3 (protein)
chain: PGVENKLIPSVGSPASSTPLPPDGTGPNSTPNNRAVTPVSQGSNSSSADPKAPPPPPVSSGEPPTLGENPDGLSQEQLEHRERSLQTLRDIQRMLFPDEKEFTGAQSGGPQQNP
modifications: left off: large carriers
For B1, the “Arm-Tcf transcriptional activity (Tcf-driven luciferase)” value was “strongly inhibit”.

B2: hLgs/Bcl9(199–392): Fragment (amino acids 199–392) of human Lgs/Bcl9 with a sequence homology domain, expressed as EGFP fusion from pcDNA3 (protein)
chain: TIVSFHIQNISNNKTERSTAPLNTQISALRNDPKPLPQQPPAPANQDQNSSQNTRLQPTPPIPAPAPKPAAPPRPLDRESPGVENKLIPSVGSPASSTPLPPDGTGPNSTPNNRAVTPVSQGSNSSSADPKAPPPPPVSSGEPPTLGENPDGLSQEQLEHRERSLQTLRDIQRMLFPDEKEFTGAQSGGPQQNP
modifications: left off: large carriers
For B2, the “Arm-Tcf transcriptional activity (Tcf-driven luciferase)” value was “strongly inhibit”.
